Measured values reported in paper PMC9909325, “Crystal structure of the phosphorylated Arabidopsis MKK5 reveals activation mechanism of MAPK kinases” (Acta Biochimica et Biophysica Sinica, 2022).
Where a chain is given by its changes, count along the chain named. Names may count otherwise.

Tests used:
AtMKK5-KD = target: T1, AtMKK5-KD (Arabidopsis thaliana, UniProt Q8RXG3); assay: PK/LDH-coupled NADH oxidation at […] nm (ATPase); format: biochemical; conditions: 1 mM ATP, 20 nM phosphorylated kinase domain; 10 mM MgCl2, pH 7.0, 25 °C
T1 construct: gene MKK5; kinase domain, residues 62-335, N-terminal His6-tag, pET28b, E. coli BL21(DE3); phosphorylated at Ser66, Thr83, Thr108, Thr215, Ser221
T1 sequence (Q8RXG3 62-335): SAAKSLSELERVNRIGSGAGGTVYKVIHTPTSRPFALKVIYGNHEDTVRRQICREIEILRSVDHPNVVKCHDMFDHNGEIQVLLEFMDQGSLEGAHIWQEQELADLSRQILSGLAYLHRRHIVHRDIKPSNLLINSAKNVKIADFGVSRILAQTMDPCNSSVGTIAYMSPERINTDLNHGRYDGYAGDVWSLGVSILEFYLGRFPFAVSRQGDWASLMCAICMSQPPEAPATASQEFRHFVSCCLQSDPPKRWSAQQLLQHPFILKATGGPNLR

[1] = target: AtMPK6(K92M) (Arabidopsis thaliana) (UniProt Q39026)
Sequence of AtMPK6(K92M) (Arabidopsis thaliana) (Q39026 whole entry K92M): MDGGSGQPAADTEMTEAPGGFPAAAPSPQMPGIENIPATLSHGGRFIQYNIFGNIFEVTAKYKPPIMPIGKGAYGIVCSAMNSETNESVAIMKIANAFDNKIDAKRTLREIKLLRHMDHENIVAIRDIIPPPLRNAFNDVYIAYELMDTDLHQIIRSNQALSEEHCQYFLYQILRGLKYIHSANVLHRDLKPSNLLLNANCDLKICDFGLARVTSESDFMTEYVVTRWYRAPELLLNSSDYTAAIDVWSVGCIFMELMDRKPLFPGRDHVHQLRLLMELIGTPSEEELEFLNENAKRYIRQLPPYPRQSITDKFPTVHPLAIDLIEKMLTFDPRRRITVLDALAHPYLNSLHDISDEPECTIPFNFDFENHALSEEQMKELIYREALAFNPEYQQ

purified protein = substrate: Nc1ncnc2c1ncn2[C@@H]1O[C@H](COP(=O)(O)OP(=O)(O)OP(=O)(O)O)[C@@H](O)[C@H]1O; assay: purified protein; format: biochemical, Arabidopsis thaliana; conditions: no protein substrate, 10 mM MgCl2, 50 mM MOPS pH 7.0, 100 mM NaCl, 25 °C, phosphorylated enzyme 20 nM

With `Nc1ncnc2c1ncn2[C@@H]1O[C@H](COP(=O)(O)OP(=O)(O)OP(=O)(O)O)[C@@H](O)[C@H]1O` [ATP] the “PK/LDH-coupled NADH oxidation at 340 nm (ATPase)” value (AtMKK5-KD) was “examined their effects on the catalytic function of AtMKK5-KD”.

B1: AtMKK5 RRKR4A (full length; Arg17, Arg19, Lys20 and Arg21 all replaced by Ala) (enzyme)
chain: MKPIQSPSGVASPMKNALAAAPDLSLPLPHRDVALAVPLPLPPPSSSSSAPASSSAISTNISAAKSLSELERVNRIGSGAGGTVYKVIHTPTSRPFALKVIYGNHEDTVRRQICREIEILRSVDHPNVVKCHDMFDHNGEIQVLLEFMDQGSLEGAHIWQEQELADLSRQILSGLAYLHRRHIVHRDIKPSNLLINSAKNVKIADFGVSRILAQTMDPCNSSVGTIAYMSPERINTDLNHGRYDGYAGDVWSLGVSILEFYLGRFPFAVSRQGDWASLMCAICMSQPPEAPATASQEFRHFVSCCLQSDPPKRWSAQQLLQHPFILKATGGPNLRQMLPPPRPLPSAS
modifications: phosphorylated at Ser/Thr residues (signals similar to the wild type; sites not stated)
B1 was tested, and the decrease of AtMPK6(K92M) phosphorylation activity against wild-type AtMKK5, coupled spectrophotometric assay (20 nM AtMKK5, 1 mM ATP, 1 μM AtMPK6(K92M)) (fold decrease) [1] was 25.

B2: AtMKK5 (full-length, phosphorylated; p-AtMKK5) (Arabidopsis thaliana) (protein)
chain: B1 chain with A17R, A19R, A20K, A21R
notes: full-length (348 residues), N-terminal His6-tag, pET28b, E. coli BL21(DE3); phosphorylated at Ser/Thr as purified
For B2, the Km (purified protein) was 96.2 ± 3.5 µM and the kcat (purified protein) was 1.96 ± 0.02 s⁻¹.

B3: AtMKK5 R21A (full length) (enzyme)
chain: B1 chain with A17R, A19R, A20K
modifications: phosphorylated at Ser/Thr residues (signals similar to the wild type; sites not stated)
B3 gave a decrease of AtMPK6(K92M) phosphorylation activity against wild-type AtMKK5, coupled spectrophotometric assay (20 nM AtMKK5, 1 mM ATP, 1 μM AtMPK6(K92M)) (fold decrease) [1] of 3.

B4: AtMKK5 L26A (full length) (enzyme)
chain: B1 chain with A17R, A19R, A20K, A21R, L26A
modifications: phosphorylated at Ser/Thr residues (signals similar to the wild type; sites not stated)
B4 gave a decrease of AtMPK6(K92M) phosphorylation activity against wild-type AtMKK5, coupled spectrophotometric assay (20 nM AtMKK5, 1 mM ATP, 1 μM AtMPK6(K92M)) (fold decrease) [1] of 10.

B5: AtMKK5 R19A (full length) (enzyme)
chain: B1 chain with A17R, A20K, A21R
modifications: phosphorylated at Ser/Thr residues (signals similar to the wild type; sites not stated)
In the case of B5, the decrease of AtMPK6(K92M) phosphorylation activity against wild-type AtMKK5, coupled spectrophotometric assay (20 nM AtMKK5, 1 mM ATP, 1 μM AtMPK6(K92M)) (fold decrease) [1] is reported as 3.

B6: AtMKK5 K20A (full length) (enzyme)
chain: B1 chain with A17R, A19R, A21R
modifications: phosphorylated at Ser/Thr residues (signals similar to the wild type; sites not stated)
Work on B6 yielded a decrease of AtMPK6(K92M) phosphorylation activity against wild-type AtMKK5, coupled spectrophotometric assay (20 nM AtMKK5, 1 mM ATP, 1 μM AtMPK6(K92M)) (fold decrease) [1] of 3.

B7: AtMKK5 L28A (full length) (enzyme)
chain: B1 chain with A17R, A19R, A20K, A21R, L28A
modifications: phosphorylated at Ser/Thr residues (signals similar to the wild type; sites not stated)
For B7, the decrease of AtMPK6(K92M) phosphorylation activity against wild-type AtMKK5, coupled spectrophotometric assay (20 nM AtMKK5, 1 mM ATP, 1 μM AtMPK6(K92M)) (fold decrease) [1] was 10.

B8: AtMKK5 LLL3A (full length; Leu24, Leu26 and Leu28 all replaced by Ala) (enzyme)
chain: B1 chain with A17R, A19R, A20K, A21R, L24A, L26A, L28A
modifications: phosphorylated at Ser/Thr residues (signals similar to the wild type; sites not stated)
Work on B8 yielded a drop of the initial velocity of AtMPK6(K92M) phosphorylation against wild-type AtMKK5, coupled spectrophotometric assay (20 nM AtMKK5, 1 mM ATP, 1 μM AtMPK6(K92M)) (fold decrease) [1] of 90.

B9: AtMKK5 L24A (full length) (enzyme)
chain: B1 chain with A17R, A19R, A20K, A21R, L24A
modifications: phosphorylated at Ser/Thr residues (signals similar to the wild type; sites not stated)
Work on B9 yielded a decrease of AtMPK6(K92M) phosphorylation activity against wild-type AtMKK5, coupled spectrophotometric assay (20 nM AtMKK5, 1 mM ATP, 1 μM AtMPK6(K92M)) (fold decrease) [1] of 10.
